Here are results for six molecules from patent US20130089555A1 (Genentech, published 2013).

Experiment [1] deals with T1, cynomolgus FcRH5 on stably transfected SVT2 cells (cynomolgus monkey).
T1 construct: also called cyno FcRH5; cynoFcRH5
T1 chain: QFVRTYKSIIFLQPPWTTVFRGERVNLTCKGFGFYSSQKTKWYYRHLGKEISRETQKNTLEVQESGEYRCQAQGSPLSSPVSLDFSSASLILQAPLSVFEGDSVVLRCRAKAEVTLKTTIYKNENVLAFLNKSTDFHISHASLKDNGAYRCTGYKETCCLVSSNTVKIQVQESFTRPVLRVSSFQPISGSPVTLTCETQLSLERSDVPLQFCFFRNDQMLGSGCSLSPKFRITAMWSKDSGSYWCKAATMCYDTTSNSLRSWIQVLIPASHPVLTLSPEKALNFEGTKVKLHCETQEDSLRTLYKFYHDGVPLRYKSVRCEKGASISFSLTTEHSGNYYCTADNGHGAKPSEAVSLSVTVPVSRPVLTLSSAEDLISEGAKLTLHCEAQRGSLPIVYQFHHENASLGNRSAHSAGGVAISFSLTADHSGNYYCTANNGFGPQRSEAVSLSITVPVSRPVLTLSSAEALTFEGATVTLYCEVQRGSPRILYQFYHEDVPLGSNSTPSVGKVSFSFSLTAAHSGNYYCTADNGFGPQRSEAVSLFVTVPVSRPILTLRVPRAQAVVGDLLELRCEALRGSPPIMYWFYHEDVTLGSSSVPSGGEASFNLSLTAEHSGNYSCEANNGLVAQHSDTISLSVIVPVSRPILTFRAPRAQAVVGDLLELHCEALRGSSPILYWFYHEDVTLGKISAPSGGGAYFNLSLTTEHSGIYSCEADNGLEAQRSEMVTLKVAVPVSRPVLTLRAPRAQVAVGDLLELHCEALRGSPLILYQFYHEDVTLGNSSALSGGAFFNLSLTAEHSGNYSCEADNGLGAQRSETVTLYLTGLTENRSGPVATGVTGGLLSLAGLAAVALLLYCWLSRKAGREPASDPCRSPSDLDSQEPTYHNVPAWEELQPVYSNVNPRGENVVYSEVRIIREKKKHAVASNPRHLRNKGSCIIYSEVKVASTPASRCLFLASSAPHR
Kind of experiment: Scatchard, 125I-labelled antibody competed with the unlabelled same antibody on SVT2.cyFcRH5 cells, 4 C; St. Error 0.022. As for the experimental part: (§1) To further determine binding of the FcRH5 murine antibodies and IgG clones, binding of iodinated IgG variants to OPM2 cells expressing human FcRH5 and SVT2 cells expressing cynomologous FcRH5, Scatchard analysis was performed.
(§2) For Scatchard analysis, 0.5 nM I¹²⁵ labeled murine or IgG clone anti-FcRH5 was competed against unlabeled murine or IgG clone anti-FcRH5, respectively, ranging from 50 to 0.02 nM (12 step 1:2 serial dilution) in the presence of a transfected OPM2 line stably expressing human-FcRH5 and a transfected SVT2 line stably expressing cynomologous-FcRH5. After a four hour incubation at 4° C., cells were washed and cell pellet counts were read by a gamma counter (1470 WIZARD Automatic Gamma Counter; Perkin Elmer, Walthem, Mass.). All points were done in triplicate and counted for 10 minutes. The average CPM was used for Kd calculation using the New Ligand (Genentech, South San Francisco, Calif.) program.

The target in experiment [2] is T1, cynomolgus FcRH5 on stably transfected …. The experiment is described as follows: Scatchard, 125I-labelled antibody competed with the unlabelled same antibody on SVT2.cyFcRH5 cells, 4 C; St. Error 0.000. The method, then: as §1, §2
Experiment [3] has as its target T2, human FcRH5 on stably transfected cells (BJAB, OPM2) (human, UniProt Q96RD9 16-977).
T2 construct: Cells were transfected with pRK.CMV.PD.nbe.FcRH5 (untagged); also called huFcRH5; BJAB.huFcRH5
T2 chain: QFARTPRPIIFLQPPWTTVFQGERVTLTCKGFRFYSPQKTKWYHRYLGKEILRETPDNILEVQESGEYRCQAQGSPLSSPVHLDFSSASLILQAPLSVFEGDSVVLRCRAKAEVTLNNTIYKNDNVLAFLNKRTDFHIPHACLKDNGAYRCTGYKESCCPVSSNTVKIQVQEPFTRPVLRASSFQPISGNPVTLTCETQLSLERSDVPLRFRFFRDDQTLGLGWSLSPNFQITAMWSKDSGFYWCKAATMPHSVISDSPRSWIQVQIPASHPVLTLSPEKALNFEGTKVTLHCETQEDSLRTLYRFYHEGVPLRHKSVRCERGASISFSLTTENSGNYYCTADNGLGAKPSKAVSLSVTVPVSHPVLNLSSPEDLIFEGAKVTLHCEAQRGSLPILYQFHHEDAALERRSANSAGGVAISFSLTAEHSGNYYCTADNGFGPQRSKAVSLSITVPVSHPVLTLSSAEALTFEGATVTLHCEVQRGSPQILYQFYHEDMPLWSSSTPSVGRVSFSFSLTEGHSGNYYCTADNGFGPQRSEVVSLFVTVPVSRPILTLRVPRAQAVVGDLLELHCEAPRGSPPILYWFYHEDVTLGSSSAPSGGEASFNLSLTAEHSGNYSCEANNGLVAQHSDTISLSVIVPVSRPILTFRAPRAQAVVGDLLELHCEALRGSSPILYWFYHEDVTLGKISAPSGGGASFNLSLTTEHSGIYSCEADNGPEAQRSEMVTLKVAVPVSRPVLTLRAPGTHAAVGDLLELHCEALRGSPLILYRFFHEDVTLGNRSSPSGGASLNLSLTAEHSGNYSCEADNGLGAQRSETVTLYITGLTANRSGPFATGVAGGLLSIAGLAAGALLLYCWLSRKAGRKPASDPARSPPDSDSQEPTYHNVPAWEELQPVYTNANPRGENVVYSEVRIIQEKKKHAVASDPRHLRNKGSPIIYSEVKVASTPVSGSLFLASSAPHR
Kind of experiment: Scatchard, 125I-labelled antibody competed with the unlabelled same antibody on OPM2.huFcRH5 cells, 4 C; St. Error 0.050. The method, then:
as §1, §2

The target in experiment [4] is T2, human FcRH5 on stably transfected cells …. The experiment is described as follows: Scatchard, 125I-labelled antibody competed with the unlabelled same antibody on BJAB.huFcRH5 cells, 4 C; St. Error 0.046.
The target of experiment [5] is T1, cynomolgus FcRH5 on stably transfected …. Kind of experiment: Scatchard, 125I-labelled antibody competed with the unlabelled same antibody on SVT2.cyFcRH5 cells, 4 C; St. Error 0.530. The method, then:
as §1, §2

Experiment [6] deals with T2, human FcRH5 on stably transfected cells …. Kind of experiment: Scatchard, 125I-labelled antibody competed with the unlabelled same antibody on BJAB.huFcRH5 cells, 4 C; St. Error 0.007.
Experiment [7] addresses T1, cynomolgus FcRH5 on stably transfected …. The experiment is described as follows: Scatchard, 125I-labelled antibody competed with the unlabelled same antibody on SVT2.cyFcRH5 cells, 4 C; St. Error 0.027.
Experiment [8] has the same target. The experiment is described as follows: Scatchard, 125I-labelled antibody competed with the unlabelled same antibody on SVT2.cyFcRH5 cells, 4 C; St. Error 1.340. As for the experimental part:
as §1, §2

In experiment [9] the target is T2, human FcRH5 on stably transfected cells …. The experiment is described as follows: Scatchard, 125I-labelled antibody competed with the unlabelled same antibody on OPM2.huFcRH5 cells, 4 C; St. Error 0.150. The method, then: as §1, §2
The target in experiment [10] is T3, human FcRH5 (PRO52387; FcRH5c/IRTA2c), antigen as used in Biacore and in hybridoma screening (human, UniProt Q96RD9 16-851, limits assumed).
T3 construct: The Biacore text only says that 'various FcRHs were injected'; also called Hu antigen; FcRH5/IRTA2
T3 chain: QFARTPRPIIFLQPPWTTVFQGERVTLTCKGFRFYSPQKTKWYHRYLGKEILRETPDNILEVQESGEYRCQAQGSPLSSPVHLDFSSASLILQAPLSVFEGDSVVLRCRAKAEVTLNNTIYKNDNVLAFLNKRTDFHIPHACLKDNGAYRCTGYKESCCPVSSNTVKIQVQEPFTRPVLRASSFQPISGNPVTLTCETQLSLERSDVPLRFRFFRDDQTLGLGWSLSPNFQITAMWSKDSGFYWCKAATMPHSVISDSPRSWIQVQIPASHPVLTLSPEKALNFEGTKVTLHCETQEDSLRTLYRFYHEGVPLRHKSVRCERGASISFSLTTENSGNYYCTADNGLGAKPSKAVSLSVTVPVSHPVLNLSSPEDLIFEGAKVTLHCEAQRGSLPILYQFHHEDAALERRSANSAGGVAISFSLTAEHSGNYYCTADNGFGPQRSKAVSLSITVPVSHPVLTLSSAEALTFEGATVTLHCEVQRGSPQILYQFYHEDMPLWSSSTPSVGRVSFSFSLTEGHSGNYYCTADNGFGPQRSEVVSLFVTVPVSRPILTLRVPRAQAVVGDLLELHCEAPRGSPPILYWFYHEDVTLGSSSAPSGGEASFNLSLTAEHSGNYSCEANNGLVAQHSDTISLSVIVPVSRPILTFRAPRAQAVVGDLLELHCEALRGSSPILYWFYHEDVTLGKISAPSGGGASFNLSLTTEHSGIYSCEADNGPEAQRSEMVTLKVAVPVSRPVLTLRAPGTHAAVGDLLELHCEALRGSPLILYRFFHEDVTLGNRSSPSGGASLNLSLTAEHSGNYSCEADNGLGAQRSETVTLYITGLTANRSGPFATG
The experiment is described as follows: SPR (Biacore 2000), IgG captured on anti-murine IgG chip, FcRH injected, 1:1 Langmuir fit, 25 C. (In SPR one partner is held on a chip, and binding of the other changes the refractive index at the surface.)
Protocol: The FcRH-binding affinities of IgGs were calculated from association and dissociation rate constants measured using a Biacore 2000 surface plasmon resonance system (BIAcore, Inc.). […] Briefly, for each cycle of kinetic analysis, 5 ul of 100 nM IgG was captured on the chip, two-fold serial dilution of various FcRHs were injected at a flow rate of 20 ul/min for 150 sec. Antigen dissociation was monitored for 180 sec before regeneration. Equilibrium dissociation constants at 25° C. were calculated by fitting the data with a 1:1 Langmuir binding model. Running buffer was PBS with 0.05% Tween-20.

B1: chimeric anti-human FcRH5 antibody 10A8 (antibody)
heavy: not shown
light: DIVMTQSHKFMSTSVRDRVSITCKASQDVSTAVAWYQQKPGQSPKLLIYSASYRYTGVPDRFTGSGSGTDFTFTISSVQAEDLAVYYCQQHFSSPRTFGGGTKVEIKRTVAAPSVFIFPPSDEQLKSGTASVVCLLNNFYPREAKVQWKVDNALQSGNSQESVTEQDSKDSTYSLSSTLTLSKADYEKHKVYACEVTHQGLSSPVTKSFNRGEC
notes: Murine 10A8 variable domains on human IgG1 and kappa constant domains; also called ch10A8; chMAFcRH5 (10A8)
Broadly, the Kd is the free concentration of one partner at which half of the binding sites on the other are occupied at equilibrium, for simple one-to-one binding. A low value points to tighter binding. With B1, the Kd in experiment [1] was determined as 0.98 nM.

B2: cysteine engineered chimeric anti-FcRH5 10A8, heavy chain A118C (antibody, human IgG1, kappa, name in EU numbering)
heavy: not shown
light: DIVMTQSHKFMSTSVRDRVSITCKASQDVSTAVAWYQQKPGQSPKLLIYSASYRYTGVPDRFTGSGSGTDFTFTISSVQAEDLAVYYCQQHFSSPRTFGGGTKVEIKRTVAAPSVFIFPPSDEQLKSGTASVVCLLNNFYPREAKVQWKVDNALQSGNSQESVTEQDSKDSTYSLSSTLTLSKADYEKHKVYACEVTHQGLSSPVTKSFNRGEC
notes: It is built here from the ch10A8 chains plus the stated A118C change; also called thio-ch10A8.HC; thio-ch10A8-HC(A118C)
Consider B2, for which the Kd in experiment [2] is 1.57 nM; in experiment [3], 0.85 nM.

B3: murine anti-FcRH5 (10A8) monoclonal antibody (antibody, V domains shown)
VH: EVQLVESGGGLVKPGGSLKISCAASGFTFSSYAVSWVRQTPEKRLEWVATISSGGSLTFYLDSVRGRFTISRDNAKNTLYLQMSSLRSEDTAMYYCARPIPDYYALDYWGQGTSVTVSS
VL: DIVMTQSHKFMSTSVRDRVSITCKASQDVSTAVAWYQQKPGQSPKLLIYSASYRYTGVPDRFTGSGSGTDFTFTISSVQAEDLAVYYCQQHFSSPRTFGGGTKVEIKR
notes: Murine IgG from a hybridoma, detected with anti-mouse IgG1 in FACS; also called mu10A8; MA10A8
In the case of B3, the Kd in experiment [4] was 0.44 nM; in [5], 2.74 nM.

B4: murine anti-FcRH5-6H1 monoclonal antibody (antibody)
chain 1: DIVMTQSHKFMSTSVRDRVSITCKASQDVSTAVAWYQQKPGQSPKLLIYSASYRYTGVPDRFTGSGSGTDFTFTISSVQAEDLAVYYCQQHFSSPRTFGGGTKVEIKR
chain 2: EVQLVESGGGLVKPGGSLKISCAASGFTFSSYAVSWVRQTPEKRLEWVATISSGGSLTFYLDSVRGRFTISRDNAKNTLYLQMSSLRSEDTAMYYCARPIPDYYALDYWGQGTSVTVSS
On to B4, for which the Kd in experiment [6] is 0.19 nM; in experiment [7], 0.38 nM.

B5: humanized anti-FcRH5 antibody 10A8 version 1 (antibody, human IgG1, V domains shown)
VH: EVQLVESGGGLVQPGGSLRLSCAASGFTFSSYAVSWVRQAPGKGLEWVATISSGGSLTFYLDSVRGRFTISRDNSKNTLYLQMNSLRAEDTAVYYCARPIPDYYALDYWGQGTLVTVSS
VL: DIQMTQSPSSLSASVGDRVTITCKASQDVSTAVAWYQQKPGKAPKLLIYSASYRYTGVPSRFSGSGSGTDFTLTISSLQPEDFATYYCQQHFSSPRTFGQGTKVEIKR
notes: Full-length human IgG1 with a human kappa constant domain; also called hu10A8 v1; hu10A8
For B5, the results for the Kd in experiment [8] and in experiment [9] were 3.04 nM and 1.44 nM, respectively.

B6: murine anti-FcRH5-7D11 monoclonal antibody (antibody, V domains shown)
VH: EVQLVESGGGLVQPGGSLKLSCAASGFTFSSYGMSWVRQTPDKRLELVATITRNGGTTYYLDSVKGRFTISRDNAKNTLYLQMSSLKSEDTAMYYCARGPIYYDYGYAMDYWGQGTTVTVSS
VL: DILLTQSPAILSVSPGERVSFSCRSSQSIGTNIHWYQQRTNGSPRLLIKFASESLSGIPSRFSGSGSGTDFTLSINSVESEDFADYYCQQSNSWPLTFGAGTKVEIK
notes: Murine IgG from a hybridoma; parent of ch7D11; also called 7D11.1.1; mu7D11
In experiment [10], B6 registered a Kd of 6 nM.
